Data published in paper PMC5180188, “Structural Insights on PHA Binding Protein PhaP from Aeromonas hydrophila” (Scientific Reports, 2016).

Biological target: the molecule itself
Experiment: SEC + other: dynamic light scattering; Superdex 200 in 50 mM Tris pH 8.0, 500 mM NaCl; DLS at 0.5 mg/ml in aqueous buffer

B1: PhaPAh (PHA binding protein PhaP, a phasin, from Aeromonas hydrophila strain 4AK4) (natural protein, UniProt O32470 1-116, looked up)
chain: MNMDVIKSFTEQMQGFAAPLTRYNQLLASNIEQLTRLQLASANAYAELGLNQLQAVSKVQDTQSLAALGTVQLETASQLSRQMLDDIQKLSALGQQFKEELDVLTADGIKKSTGKA
notes: PhaP (phasin) of Aeromonas hydrophila strain 4AK4, UniProtKB O32470, residues 1-116; called full-length in the methods; Cloned in pGEX-6P-1; residues left by PreScission cleavage are not described; Phasing used a (Ta6Br12)2+ soaked crystal and a selenomethionine-labelled crystal; the final model is of the native crystal; also called wild type; wild-type PhaPAh; not shown: GST, N-terminal, cleaved
stoichiometry N: 4
